Reference: US7078203 (UNIVERSITY OF NORTH CAROLINA AT CHAPEL HILL, dated 2006)

Columns and labels:
[1] = biological target: T1, HA-epitope tagged human ROC1 (human, UniProt P62877 1-108); experiment: co-immunoprecipitation with anti-HA from [35S]-methionine labelled transfected cells
T1 construct: Expressed by transfection in mammalian cells; tag written first because of the name HA-ROC1; also called HA-ROC1

[2] = biological target: human ROC1 (untagged: in vitro translated or endogenous in HeLa and Saos-2 cells) (human, UniProt P62877 1-108); experiment: anti-ROC1 immunopurification from HeLa lysate, microsequencing of co-precipitated 70 to 120 kDa proteins
[3] = biological target: T2, mouse APC2 fused to the Gal4 DNA-binding domain (yeast; mouse, UniProt P04386 1-147; Q8BZQ7 15-837, limits assumed); experiment: yeast two-hybrid, -LWH with 5 mM 3-AT
T2 construct: also called GAL4BD-APC2

myc-epitope tagged APC2 = myc-epitope tagged APC2 (mouse, UniProt Q8BZQ7 15-837); experiment: co-immunoprecipitation from transfected HeLa cells
[4] = biological target: CDC53 fused to the Gal4 DNA binding domain (pGBT8-CDC53) (yeast; S. cerevisiae, UniProt P04386 1-147; Q12018 1-815); experiment: yeast two-hybrid
Description: (§1) The yeast genome contains four cullin members, CDC53, CUL-B (ORF YGR003w), CUL-C(ORF YJL047c) and APC2. Each gene was fused in-frame with the Gal4 DNA binding domain and co-transformed with ScROC1 or ScAPC11 fused in-frame with the GAL4 activation domain. ScAPC2 was self-activating as a bait and was fused in-framed with the GAL4 activation domain and tested with ScROC1 fused in-frame with the DNA binding domain.

[5] = biological target: CUL-B (ORF YGR003w) fused to the Gal4 DNA binding domain (yeast; S. cerevisiae, UniProt P04386 1-147; P53202 1-744); experiment: yeast two-hybrid
Description: as §1

Sequence of human ROC1 (untagged: in vitro translated or endogenous in HeLa and Saos-2 cells) (P62877 whole entry, the tested form may be a part): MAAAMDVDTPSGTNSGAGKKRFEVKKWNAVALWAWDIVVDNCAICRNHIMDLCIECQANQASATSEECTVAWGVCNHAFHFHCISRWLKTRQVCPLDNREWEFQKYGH
T1 sequence (P62877 whole entry): as the sequence (P62877 whole entry, the tested form may be a part) above
Sequence of myc-epitope tagged APC2 (Q8BZQ7 15-837): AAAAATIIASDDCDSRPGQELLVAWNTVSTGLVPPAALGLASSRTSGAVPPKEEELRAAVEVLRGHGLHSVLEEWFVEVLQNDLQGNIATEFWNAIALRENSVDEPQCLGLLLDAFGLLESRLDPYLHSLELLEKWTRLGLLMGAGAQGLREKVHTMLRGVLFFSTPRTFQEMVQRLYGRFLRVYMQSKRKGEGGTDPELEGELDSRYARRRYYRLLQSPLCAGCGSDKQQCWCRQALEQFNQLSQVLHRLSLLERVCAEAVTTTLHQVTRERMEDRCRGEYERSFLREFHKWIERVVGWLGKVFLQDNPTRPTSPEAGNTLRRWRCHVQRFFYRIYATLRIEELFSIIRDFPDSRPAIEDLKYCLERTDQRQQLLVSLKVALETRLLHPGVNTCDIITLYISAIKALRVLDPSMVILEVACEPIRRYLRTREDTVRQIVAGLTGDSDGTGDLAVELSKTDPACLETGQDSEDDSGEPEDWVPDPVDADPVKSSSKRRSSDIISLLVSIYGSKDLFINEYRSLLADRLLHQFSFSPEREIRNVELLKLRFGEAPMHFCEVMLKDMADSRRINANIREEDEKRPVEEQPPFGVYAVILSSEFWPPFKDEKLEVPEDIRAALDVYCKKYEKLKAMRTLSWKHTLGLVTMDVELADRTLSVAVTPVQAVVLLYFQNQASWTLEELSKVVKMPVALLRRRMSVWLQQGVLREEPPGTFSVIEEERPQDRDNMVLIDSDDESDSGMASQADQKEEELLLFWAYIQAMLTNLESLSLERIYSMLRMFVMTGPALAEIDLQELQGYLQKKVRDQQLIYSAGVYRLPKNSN

B1: myc-epitope tagged mouse cullin 4A (other, UniProt Q3TCH7 1-759, looked up, not shown: small tags and cut ends)
chain: MADEGPRKGSVSALMGRTNGLTKPAALAGGPAKPGGTGGSRKLVIKNFRDRPRLPDNYTQDTWRKLHEAVKAIQSSTSIRYNLEELYQAVENLCSHKVSPTLYKQLRQVCEDHVQAQILPFREDSLDSVLFLKKINTCWQDHCRQMIMIRSIFLFLDRTYVLQNSMLPSIWDMGLELFRNHIISDRMVQSKTIDGILLLIGRERSGEAVDRSLLRSLLSMLSDLQVYKDSFELKFLEETNCLYAAEGQRLMQDREVPEYLNHVSKRLEEEADRVITYLDHSTQKPLIACVEKQLLGEHLTAILQKGLEHLLDENRVPDLTQMYQLFSRVKGGQHALLQHWSEYIKTFGTTIVINPEKDKDMVQDLLDFKDKVDHVVEVCFQRNERFINLMKESFETFINKRPNKPAELIAKHVDSKLRAGNKEATDEELERILDKIMILFRFIHGKDVFEAFYKKDLAKRLLVGKSASVDAEKSMLSKLKHECGAAFTSKLEGMFKDMELSKDIMVHFKQHMQNQSAPGPIDLTVNILTMGYWPTYTPMEVHLPPEMVRLQEVFKTFYLGKHSGRKLQWQTTLGHAVLKADFKEGKKEFQVSLFQTLVLLMFNEGDGFSFEEIKMATGIEDSELRRTLQSLACGKARVLIKSPKGKEVEDGDKFIFNADFKHKLFRIKINQIQMKETVEEQVSTTERVFQDRQYQIDAAIVRIMKMRKTLGHNLLVSELYNQLKFPVKPGDLKKRIESLIDRDYMERDKDSPNQYHYVA
notes: also called myc-mCUL4A
B1: binds [1].

B2: human CUL2 (endogenous in HeLa cells) (other, UniProt Q13617 1-745, looked up)
chain: MSLKPRVVDFDETWNKLLTTIKAVVMLEYVERATWNDRFSDIYALCVAYPEPLGERLYTETKIFLENHVRHLHKRVLESEEQVLVMYHRYWEEYSKGADYMDCLYRYLNTQFIKKNKLTEADLQYGYGGVDMNEPLMEIGELALDMWRKLMVEPLQAILIRMLLREIKNDRGGEDPNQKVIHGVINSFVHVEQYKKKFPLKFYQEIFESPFLTETGEYYKQEASNLLQESNCSQYMEKVLGRLKDEEIRCRKYLHPSSYTKVIHECQQRMVADHLQFLHAECHNIIRQEKKNDMANMYVLLRAVSTGLPHMIQELQNHIHDEGLRATSNLTQENMPTLFVESVLEVHGKFVQLINTVLNGDQHFMSALDKALTSVVNYREPKSVCKAPELLAKYCDNLLKKSAKGMTENEVEDRLTSFITVFKYIDDKDVFQKFYARMLAKRLIHGLSMSMDSEEAMINKLKQACGYEFTSKLHRMYTDMSVSADLNNKFNNFIKNQDTVIDLGISFQIYVLQAGAWPLTQAPSSTFAIPQELEKSVQMFELFYSQHFSGRKLTWLHYLCTGEVKMNYLGKPYVAMVTTYQMAVLLAFNNSETVSYKELQDSTQMNEKELTKTIKSLLDVKMINHDSEKEDIDAESSFSLNMNFSSKRTKFKITTSMQKDTPQEMEQTRSAVDEDRKMYLQAAIVRIMKARKVLRHNALIQEVISQSRARFNPSISMIKKCIEVLIDKQYIERSQASADEYSYVA
notes: also called cullin 2
B2: binds [2].

B3: full length human ROC2 fused to the Gal4 DNA activation domain (other, not shown: large carriers)
chain: MFSLKKWNPVAMWSWDVECDTCAICRVQVMDACLRCQAENKQEDCVVVWGECNHSFHNCCMSLWVKQNNRCPLCQQDWVVQRIGK
notes: Yeast two-hybrid prey
B3: no binding [3].

B4: HA tagged human ROC2 (other, not shown: small tags and cut ends)
chain: MFSLKKWNPVAMWSWDVECDTCAICRVQVMDACLRCQAENKQEDCVVVWGECNHSFHNCCMSLWVKQNNRCPLCQQDWVVQRIGK
notes: Migrates as a doublet in transfected cells; also called HA-ROC2
B4: no binding (myc-epitope tagged APC2).

B5: ScAPC11 fused to the GAL4 activation domain (other, S. cerevisiae, UniProt Q12157 1-165, looked up, not shown: large carriers)
chain: MKVKINEVHSVFAWSWHIPSTSDEDAANNDPIGNDEDEDVCGICRASYNGTCPSCKFPGDQCPLVIGLCHHNFHDHCIYRWLDTPTSKGLCPMCRQTFQLQKGLAINDAHVQKFVEIVSRRREEMIEEGVAEEFVDFDEPIRQNTDNPIGRQQVDTILDEDFLLR
notes: also called yeast APC11
B5: no binding [4]; no binding [5].
